target: T1, human gastric inhibitory peptide receptor (hGIPR) (Homo sapiens, UniProt P48546); experiment: cAMP pharmacological functional assay in presence of 0.1% casein, hGIPR; format: cell-based; details: ratio of hGIPR to hGLP1R cAMP EC50 ratios
T1 construct: expressed in transfected cells; host or cells: HEK293
T1 sequence (P48546 22-466): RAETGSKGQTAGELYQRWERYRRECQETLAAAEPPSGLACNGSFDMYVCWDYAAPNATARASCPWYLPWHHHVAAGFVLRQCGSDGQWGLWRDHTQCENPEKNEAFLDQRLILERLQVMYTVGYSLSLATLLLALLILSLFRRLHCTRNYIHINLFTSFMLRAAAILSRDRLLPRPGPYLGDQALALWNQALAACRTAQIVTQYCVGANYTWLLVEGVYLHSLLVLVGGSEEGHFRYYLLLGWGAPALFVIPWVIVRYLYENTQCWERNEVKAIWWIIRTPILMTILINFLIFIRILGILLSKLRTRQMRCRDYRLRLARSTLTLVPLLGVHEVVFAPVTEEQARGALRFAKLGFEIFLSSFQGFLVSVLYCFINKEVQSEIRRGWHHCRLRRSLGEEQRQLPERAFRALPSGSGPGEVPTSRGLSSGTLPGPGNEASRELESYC

Substance | [hGIPR/hGLP1R] EC50 Ratio
Y-Aib-EGT-αMeF(2F)-TSDYSI-αMeL-LDEK((2-[2-(2-Amino-ethoxy)-ethoxy]-acetyl)2-(γGlu)-CO—(CH2)18—CO2H)AQ-Aib-EFIVYLIEGGPSSGAPPPS-NH2 (YXEGTXTSDYSIXLDEKAQXEFIVYLIEGGPSSGAPPPS; Aib, αMeF(2F), αMeL; acylated lysine C20 diacid; amide; (2)..(2) Xaa at position 2 is Aib; (6)..(6) Xaa at position 6 is alpha-methyl-Phe(2F); (13)..(13) Xaa at position 13 is alpha-methyl-Leu; MOD_RES (17)..(17) Lys at position 17 is chemically modified by conjugation of the epsilon-amino group of the Lys side chain with (2-[2-(2-amino-ethoxy)-ethoxy]-acetyl)2-(gamma-Glu)-CO-(CH2)18- CO2H; (20)..(20) Xaa at position 20 is Aib; MOD_RES (39)..(39) Ser a) [Peptide 149] | 3.76
Y-Aib-EGT-αMeF(2F)-TSDYSI-αMeL-LDEK((2-[2-(2-Amino-ethoxy)-ethoxy]-acetyl)2-(εK)-CO—(CH2)18—CO2H)AQ-Aib-EFI-(D-Glu)-YLIEGGPSSGAPPPS-NH2 (YXEGTXTSDYSIXLDEKAQXEFIXYLIEGGPSSGAPPPS; Aib, αMeF(2F), αMeL, D-Glu; εK-lipidated K; amide; (2)..(2) Xaa at position 2 is Aib; (6)..(6) Xaa at position 6 is alpha-methyl-Phe(2F); (13)..(13) Xaa at position 13 is alpha-methyl-Leu; MOD_RES (17)..(17) Lys at position 17 is chemically modified by conjugation of the epsilon-amino group of the Lys side chain with (2-[2-(2-amino-ethoxy)-ethoxy]-acetyl)2-(epsilon-Lys)-CO-(CH2)18- CO2H; (20)..(20) Xaa at position 20 is Aib; (24)..(24) Xaa at posi) [Peptide 216] | 3.75
Y-Aib-EGT-αMeF(2F)-TSDYSI-αMeL-LDEK((2-[2-(2-Amino-ethoxy)-ethoxy]-acetyl)2-CO—(CH2)16—CO2H)AQ-Aib-EFI-(D-Glu)-YLIEGGPSSGAPPPS-NH2 (YXEGTXTSDYSIXLDEKAQXEFIXYLIEGGPSSGAPPPS; Aib, αMeF(2F), αMeL, D-Glu; lipidated K; amide; (2)..(2) Xaa at position 2 is Aib; (6)..(6) Xaa at position 6 is alpha-methyl-Phe(2F); (13)..(13) Xaa at position 13 is alpha-methyl-Leu; MOD_RES (17)..(17) Lys at position 17 is chemically modified by conjugation of the epsilon-amino group of the Lys side chain with (2-[2-(2-amino-ethoxy)-ethoxy]-acetyl)2-CO-(CH2)16-CO2H; (20)..(20) Xaa at position 20 is Aib; (24)..(24) Xaa at position 24 is D-Gl) [Peptide 214] | 3.98
Y-Aib-EGT-αMeF(2F)-TSDYSI-αMeL-LDEK((2-[2-(2-Amino-ethoxy)-ethoxy]-acetyl)2-CO—(CH2)18—CO2H)AQ-Aib-EFI-(D-Glu)-YLIEGGPSSGAPPPS-NH2 (YXEGTXTSDYSIXLDEKAQXEFIXYLIEGGPSSGAPPPS; Aib, αMeF(2F), αMeL, D-Glu; lipidated K; amide; (2)..(2) Xaa at position 2 is Aib; (6)..(6) Xaa at position 6 is alpha-methyl-Phe(2F); (13)..(13) Xaa at position 13 is alpha-methyl-Leu; MOD_RES (17)..(17) Lys at position 17 is chemically modified by conjugation of the epsilon-amino group of the Lys side chain with (2-[2-(2-amino-ethoxy)-ethoxy]-acetyl)2-CO-(CH2)18-CO2H; (20)..(20) Xaa at position 20 is Aib; (24)..(24) Xaa at position 24 is D-Gl) [Peptide 215] | 4.34
Y-Aib-EGT-αMeF(2F)-TSDYSI-αMeL-LDHK((2-[2-(2-Amino-ethoxy)-ethoxy]-acetyl)2-(γGlu)-CO—(CH2)18—CO2H)AQ-Aib-EFI-(D-Glu)-YLIEGGPSSGAPPPS-NH2 (YXEGTXTSDYSIXLDHKAQXEFIXYLIEGGPSSGAPPPS; Aib, αMe residues, lipidated Lys, D-Glu, C-terminal amide; (2)..(2) Xaa at position 2 is Aib; (6)..(6) Xaa at position 6 is alpha-methyl-Phe(2F); (13)..(13) Xaa at position 13 is alpha-methyl-Leu; MOD_RES (17)..(17) Lys at position 17 is chemically modified by conjugation of the epsilon-amino group of the Lys side chain with (2-[2-(2-amino-ethoxy)-ethoxy]-acetyl)2-(gamma-Glu)-CO-(CH2)18- CO2H; (20)..(20) Xaa at position 20 is Aib; (24)..(24) Xaa at positi) [Peptide 230] | 5.53
Y-Aib-EGT-αMeF(2F)-TSDYSI-αMeL-LDKK((2-[2-(2-Amino-ethoxy)-ethoxy]-acetyl)2-(γGlu)-CO—(CH2)18—CO2H)AQ-Aib-EFI-(D-Glu)-YLIEGGPSSGAPPPS-NH2 (YXEGTXTSDYSIXLDKKAQXEFIXYLIEGGPSSGAPPPS; Aib, αMeF(2F), αMeL, D-Glu; lipidated K; amide; (2)..(2) Xaa at position 2 is Aib; (6)..(6) Xaa at position 6 is alpha-methyl-Phe(2F); (13)..(13) Xaa at position 13 is alpha-methyl-Leu; MOD_RES (17)..(17) Lys at position 17 is chemically modified by conjugation of the epsilon-amino group of the Lys side chain with (2-[2-(2-amino-ethoxy)-ethoxy]-acetyl)2-(gamma-Glu)-CO-(CH2)18- CO2H; (20)..(20) Xaa at position 20 is Aib; (24)..(24) Xaa at positi) [Peptide 212] | 5.41
Y-Aib-EGT-αMeF(2F)-TSDYSI-αMeL-LDKK((2-[2-(2-Amino-ethoxy)-ethoxy]-acetyl)-(γGlu)-(2-[2-(2-Amino-ethoxy)-ethoxy]-acetyl)-CO—(CH2)18—CO2H)AQ-Aib-EFI-(D-Glu)-YLIEGGPSSGAPPPS-NH2 (YXEGTXTSDYSIXLDKKAQXEFIXYLIEGGPSSGAPPPS; Aib, αMeF(2F), αMeL, D-Glu; lipidated K; amide; (2)..(2) Xaa at position 2 is Aib; (6)..(6) Xaa at position 6 is alpha-methyl-Phe(2F); (13)..(13) Xaa at position 13 is alpha-methyl-Leu; MOD_RES (17)..(17) Lys at position 17 is chemically modified by conjugation of the epsilon-amino group of the Lys side chain with (2-[2-(2-Amino-ethoxy)-ethoxy]-acetyl)-(gamma-Glu)-(2-[2-(2-Amino- ethoxy)-ethoxy]-acetyl)-CO-(CH2)18-CO2H; (20)..(20) Xaa at positi) [Peptide 211] | 3.59
